Test results taken from US20260242495A1 (PROMETHEUS BIOSCIENCES, published 2026).
“And” between values parts separate entries of the source, which are not always exact repeats. Identical values can stand only once.

Target: T1, cynomolgus monkey TL1A (cynomolgus monkey, UniProt G7PRK8 72-251)
T1 sequence: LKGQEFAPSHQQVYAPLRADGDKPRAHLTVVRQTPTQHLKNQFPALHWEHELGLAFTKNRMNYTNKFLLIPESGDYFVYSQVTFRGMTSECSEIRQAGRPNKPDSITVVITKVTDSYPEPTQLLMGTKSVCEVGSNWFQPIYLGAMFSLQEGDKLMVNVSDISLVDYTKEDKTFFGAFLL
Assay: cell-based or functional assay

B1: anti-TL1A antibody A219 (antibody, V domains shown)
VH: QVQLVQSGAEVKKPGASVKVSCKASGFDIQDTYMHWVKQRPGQGLEWMGRIDPASGHTKYDPKFQVRVTITRDTSTSTVYLELSSLRSEDTAVYYCARSGGLPDVWGQGTTVTVSS
VL: EIVLTQSPGTLSLSPGERATLSCRASSSVSYMYWYQQKPGQAPRPLIYATSNLASGIPDRFSGSGSGTDFTLTISRLEPEDFAVYYCQQWEGNPRTFGGGTKLEIK
How did the “IC50 of inhibition of IFN-γ release in monkey whole blood stimulated with immune complex, IL-12 and IL-18” value turn out when B1 was run?
The value was 1.54 nM and 289 ng/mL.
